Data: article PMC3407147, “Therapeutic Inhibition of Pro-Inflammatory Signaling and Toxicity to Staphylococcal Enterotoxin B by a Synthetic Dimeric BB-Loop Mimetic of MyD88” (PLoS ONE, 2012)

Molecular target: the molecule itself
Experiment: peptide or protein array; MyD88 TIR domain monomer spotted in quadruplicate on nitrocellulose-coated slides; biotinylated MyD88 (25 µg/ml) in 50 mM Hepes, 0.1% Tween, 3% human antibody serum, 2 h at room temperature; detected with streptavidin-Alexa Fluor 647; with or without pre-incubation with EM-163 (100 and 50 µg/ml) or DMSO

B1: recombinant MyD88 TIR domain (amino acids 157-296) (domain or fragment, human, UniProt Q99836 157-296, looked up)
chain: MPERFDAFICYCPSDIQFVQEMIRQLEQTNYRLKLCVSDRDVLPGTCVWSIASELIEKRCRRMVVVVSDDYLQSKECDFQTKFALSLSPGAHQKRLIPIKYKAMKKEFPSILRFITVCDYTNPCTKSWFWTRLAKALSLP
modifications: biotin (EZ Link Biotin BMCC kit) on the copy in solution; the copy spotted on the slide is not biotinylated
notes: also called MyD88 (157-296); TIR domain protein (monomer); not shown: His, N-terminal, cleaved; MBP, N-terminal, cleaved
binding result: binds
